Assay results from US20170283834A1, “Processes for Producing A Fermentation Product Using A Fermenting Organism” (Novozymes A/S, priority 2014, published 2017).
Substitutions are numbered along the chain they refer to. Numbers in names are those of the source.

Test system: zein
Assay: Relative activity assay of protease variants (zein micro titer plate)
Type: biochemical
Summary of the method: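 Relative activity is the ratio of zein clearance (A630 turbidity) at a higher versus lower temperature, e.g. 60/65 °C or 70/80 °C. Supernatants from 3-day yeast cultures applied to 0.05-0.1% zein agar in 20 mM sodium acetate pH 4.5 with zinc, incubated at least 4 h.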

B1: JTP193: protease variant of SEQ ID NO: 3: Y82F S87G S70V D79L D104P A112P D142L (protein, listed as Thermoascus aurantiacus)
chain: MRLVASLTALVALSVPVFPAAVNVKRASSYLEITLSQVSNTLIKAVVQNTGSDELSFVHLNFFKDPAPVKKVSVYRDGSEVQFEGILSRYKSTGLSRDAFTYLAPGESVEDVFDIASTYDLTSGGPVTIRTEGVVPYATANSTDIAGYISYSSNVLTIDVDGAAAATVSKAITPLDRRTRISSCSGSRQSALTTALRNAASLANAAADAAQSGSASKFSEYFKTTSSSTRQTVAARLRAVAREASSSVSGATTYYCLDPFGYCSGNVLAYTLPSYNIIANCPIFYTYLPPLTSTCHAQDQATTALHEFTHAPGVYSPGTLDLAYGYQAAMGLSSSQAVMNADTYALYANAIYLGC
Relative activity 85° C./70° C. (Table 5, upper part): 15%

B2: JTP187: protease variant of SEQ ID NO: 3: S70V D79L Y82F S87G A112P D142L (protein, listed as Thermoascus aurantiacus)
chain: B1 chain with P282D
Relative activity 80° C./70° C. (Table 5, upper part): 45%

B3: JTP211: protease variant of SEQ ID NO: 3: A27K D79L Y82F D104P A112P A126V D142L (protein, listed as Thermoascus aurantiacus)
chain: B1 chain with A205K, V248S, G265S, A304V
Relative activity 75° C./70° C. (Table 5, lower part): 94%
Relative activity 80° C./70° C. (Table 5, lower part): 44%

B4: JTP134: protease variant of SEQ ID NO: 3: D79L Y82F S87P A112P D142L (protein, listed as Thermoascus aurantiacus)
chain: B1 chain with V248S, G265P, P282D
Relative activity 80° C./70° C. (Table 5, upper part): 40%

B5: JTP161: protease variant of SEQ ID NO: 3: D79L Y82F S87G A112P D142L (protein, listed as Thermoascus aurantiacus)
chain: B1 chain with V248S, P282D
Relative activity 80° C./70° C. (Table 5, upper part): 30%
Relative activity 85° C./70° C. (Table 5, upper part): 12%

B6: JTP181: protease variant of SEQ ID NO: 3: D79L Y82F S87G Y97W D104P A112P D142L (protein, listed as Thermoascus aurantiacus)
chain: B1 chain with V248S, Y275W
Relative activity 80° C./70° C. (Table 5, upper part): 45%

B7: JTP180: protease variant of SEQ ID NO: 3: S70V D79L Y82F S87G Y97W A112P D142L (protein, listed as Thermoascus aurantiacus)
chain: B1 chain with Y275W, P282D
Relative activity 80° C./70° C. (Table 5, upper part): 52%

B8: JTP194: protease variant of SEQ ID NO: 3: Y82F S87G D79L D104P A112P A126V D142L (protein, listed as Thermoascus aurantiacus)
chain: B1 chain with V248S, A304V
Relative activity 85° C./70° C. (Table 5, upper part): 22%
